Source: patent publication US8404647B2, “Peptidylarginine deiminase (PAD) inhibitors” (Chiralix B.V., priority 2008, dated 2013)
Marks after values point to notes of the source that are not given here. Ends that are not written are not given here.

Assays:
[1] = molecular target: PAD4 (Homo sapiens, UniProt Q9UM07); assay: Conversion (R to Cit) of substrate peptides by PAD4, mass spectrometry; assay type: biochemical; conditions: for Conversion: Table 7, PAD4, test system with 3 times less enzyme; for Conversion by PAD4 (%): Table 10; for Conversion (%): PAD4
Description: From previous studies it was known that D-S-Q-F-A-F-R-G-A-S-A-S-D (designated here as L1: SEQ ID NO: 11) is a substrate for PAD2 and PAD 4. To obtain better substrates, and subsequently powerful inhibitors, we intended to identify structural elements that improve substrate properties. A set of 152 individual analog peptides was generated, each differing from L1 by one amino acid at one of the positions −4 to −1 or 1 to 4.
In Table 3 the conversion of each analog (R to Cit conversion) is depicted. Values of the analogs relate to the conversion of the analog compared to the conversion of L1 under standard conditions (100 means a conversion equal to L1, 50 means conversion of 50% of that of L1, 175 means conversion of 175% of that of L1). Numbers above 100 thus relate to amino acid substitutions that improve substrate properties.
Peptides of table 4 are represented by the following sequences SEQ ID NO: 22-31 and 33-46. Control peptide are represented by the following sequences SEQ ID NO: 11 as control L1 and SEQ ID NO: 32 as control L2. Unfortunately, a substantial number of designed peptides were too polar to be analyzed on our LC-MS system (indicated in Table 4 as n.t., not trapped on the column). We therefore also generated and tested these peptides containing two additional N-terminal F-residues to increase hydrophobicity. In this form peptides were trapped on the column and could be analyzed (see Table 5).
Based on the above results we designed 20 peptides containing multiple amino acids that improve substrate properties (see Table 7). The indicated peptides were synthesized and tested in order to identify the best substrate from this group. Here we used a test system with less enzyme (3 times less) compared to the experiments described above.
(§1) Conversion of arginine into citrulline in the substrate peptides by PAD2 or PAD4 using mass spectrometry was performed as follows. A candidate substrate peptide was incubated with a PAD as indicated for several hours at 37° C. The reaction was quenched by the addition with acetic acid. A sample was analysed on a Qtof mass spectrometer (Micromass, UK) and the mass spectrum was compared with that of the same peptide not treated with PAD. Normally, 2^+- and 3^+-ions are detected. The conversion (ΔM=0.98 Da) was calculated on the 2^+- and 3^+-ions individually, and subsequently averaged taking into account the relative peak height of the 2^+- and 3^+-signals (see FIG. 5).

[2] = molecular target: PAD2 (Homo sapiens, UniProt Q9Y2J8); assay: Conversion (R to Cit) of substrate peptides by PAD2, mass spectrometry; assay type: biochemical; conditions: for Conversion by PAD2 (%): Table 10; for Conversion (%): Table 9, PAD2
Description: In a similar fashion as for PAD4 we identified improved peptide substrates for PAD2. Again L1 was used as a lead compound. The set of 152 peptides from Table 3 was used and testing was performed as described before.
as §1

[3] = Table 5, peptides with two additional N-terminal F-residues

Chain of PAD4 (Q9UM07 whole entry): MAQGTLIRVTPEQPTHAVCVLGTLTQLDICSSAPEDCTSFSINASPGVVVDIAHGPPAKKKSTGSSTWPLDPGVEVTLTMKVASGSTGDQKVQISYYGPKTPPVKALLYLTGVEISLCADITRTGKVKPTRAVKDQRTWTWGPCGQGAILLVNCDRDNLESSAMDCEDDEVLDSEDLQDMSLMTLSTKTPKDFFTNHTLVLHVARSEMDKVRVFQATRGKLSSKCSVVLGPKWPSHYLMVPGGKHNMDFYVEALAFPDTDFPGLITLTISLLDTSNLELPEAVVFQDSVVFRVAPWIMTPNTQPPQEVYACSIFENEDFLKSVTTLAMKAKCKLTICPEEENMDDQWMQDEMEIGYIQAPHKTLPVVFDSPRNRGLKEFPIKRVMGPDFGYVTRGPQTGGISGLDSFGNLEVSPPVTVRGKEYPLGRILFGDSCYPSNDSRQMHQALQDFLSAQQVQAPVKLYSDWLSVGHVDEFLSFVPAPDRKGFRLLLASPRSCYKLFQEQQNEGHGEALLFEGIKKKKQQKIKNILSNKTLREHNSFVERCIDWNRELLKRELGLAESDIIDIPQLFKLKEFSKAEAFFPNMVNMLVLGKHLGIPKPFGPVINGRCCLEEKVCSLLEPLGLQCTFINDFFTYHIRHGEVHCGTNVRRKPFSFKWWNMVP
Chain of PAD2 (Q9Y2J8 whole entry): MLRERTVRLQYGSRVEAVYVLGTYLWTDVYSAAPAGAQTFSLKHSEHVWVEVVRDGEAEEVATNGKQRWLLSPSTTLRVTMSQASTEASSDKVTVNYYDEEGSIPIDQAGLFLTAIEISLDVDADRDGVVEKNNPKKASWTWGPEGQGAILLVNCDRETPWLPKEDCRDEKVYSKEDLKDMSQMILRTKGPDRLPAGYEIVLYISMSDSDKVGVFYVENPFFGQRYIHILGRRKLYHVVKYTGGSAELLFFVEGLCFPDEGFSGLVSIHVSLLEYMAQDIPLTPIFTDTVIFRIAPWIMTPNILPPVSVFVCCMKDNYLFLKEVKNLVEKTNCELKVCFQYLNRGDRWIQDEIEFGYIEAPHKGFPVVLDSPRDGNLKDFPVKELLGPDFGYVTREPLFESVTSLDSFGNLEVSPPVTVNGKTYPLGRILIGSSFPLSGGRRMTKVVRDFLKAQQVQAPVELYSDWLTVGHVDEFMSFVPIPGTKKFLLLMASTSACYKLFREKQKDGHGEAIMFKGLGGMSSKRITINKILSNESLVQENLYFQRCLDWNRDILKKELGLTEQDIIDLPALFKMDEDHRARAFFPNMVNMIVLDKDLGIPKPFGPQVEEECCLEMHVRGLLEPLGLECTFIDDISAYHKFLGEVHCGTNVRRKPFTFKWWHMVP

Row | Substance | Conversion [1] | Conversion by PAD4 (%) [1] [%] | Conversion by PAD2 (%) [2] | Conversion (%) [1, 3] [%] | Conversion (%) [2] [%] | Conversion (%) ([1]; Table 4, 13-mer peptides)
1 | D-S-K-K-F-K-R-D-F-L-F-S-D (DSKKFKRDFLFSD; not fully specified (C-terminus); printed as D-S-K-K-F-K-R-D-F-L-F-S-D) [Peptide 0708-26] | 23 | 35 | 97% |  |  | 
2 | D-S-K-W-H-H-R-G-H-L-Y-S-D (DSKWHHRGHLYSD) [Peptide 0708-31] | 52 | 71 | 96% |  |  | 
3 | D-S-K-K-F-H-R-G-F-L-Y-S-D (DSKKFHRGFLYSD; not fully specified (C-terminus); printed as D-S-K-K-F-H-R-G-F-L-Y-S-D) [Peptide 0708-33] | 60 | 73 | 100% |  |  | 
4 | F-F-D-S-K-H-L-S-R-E-W-M-W-S-D (FFDSKHLSREWMWSD) [Peptide 0612-26] |  | 73 | 97% | 100 |  | 
5 | D-S-K-H-K-S-R-D-F-V-Y-S-D (DSKHKSRDFVYSD; not fully specified (C-terminus); printed as D-S-K-H-K-S-R-D-F-V-Y-S-D) [Peptide 0608-27] |  | 69 | 94% |  |  | 
6 | D-S-K-W-Y-H-R-N-K-F-W-S-D (DSKWYHRNKFWSD) [Peptide 0735-27] |  | 45 | 98% |  | 98 | 
7 | D-S-K-F-K-F-R-Y-A-Y-A-S-D (DSKFKFRYAYASD; not fully specified (C-terminus); printed as D-S-K-F-K-F-R-Y-A-Y-A-S-D) [Peptide 0735-34] |  | <20 | 91% |  | 91 | 
8 | D-S-K-K-F-H-R-D-F-L-Y-S-D (DSKKFHRDFLYSD; not fully specified (C-terminus); printed as D-S-K-K-F-H-R-D-F-L-Y-S-D) [Peptide 0708-25] | 56 | 64 | 97% |  |  | 
9 | D-S-K-W-H-H-R-D-H-L-Y-S-D (DSKWHHRDHLYSD; not fully specified (C-terminus); printed as D-S-K-W-H-H-R-D-H-L-Y-S-D) [Peptide 0708-18] | 60 | 71 | 90% |  |  | 
10 | D-S-K-K-H-D-R-D-H-L-W-S-D (DSKKHDRDHLWSD; not fully specified (C-terminus); printed as D-S-K-K-H-D-R-D-H-L-W-S-D) [Peptide 0708-20] | 62 | 80 | 95% |  |  | 
11 | D-S-K-K-Y-D-R-G-F-L-W-S-D (DSKKYDRGFLWSD; not fully specified (C-terminus); printed as D-S-K-K-Y-D-R-G-F-L-W-S-D) [Peptide 0708-34] | 64 | 81 | 93% |  |  | 
12 | F-F-D-S-H-K-H-S-R-E-W-L-W-S-D (FFDSHKHSREWLWSD) [Peptide 0612-38] |  | 72 | 96% | 100 |  | 
13 | F-F-D-S-K-K-K-H-R-E-W-V-W-S-D (FFDSKKKHREWVWSD) [Peptide 0612-34] |  | 76 | 99% | 100 |  | 
14 | D-S-K-K-H-F-R-D-K-L-Y-S-D (DSKKHFRDKLYSD; not fully specified (C-terminus); printed as D-S-K-K-H-F-R-D-K-L-Y-S-D) [Peptide 0708-22] | 43 | 37 | 92% |  |  | 
15 | F-F-D-S-H-K-K-S-R-E-Y-V-F-S-D (FFDSHKKSREYVFSD) [Peptide 0612-44] |  | 58 | 100% | 100 |  | 
16 | D-S-K-K-F-D-R-G-H-L-Y-S-D (DSKKFDRGHLYSD; not fully specified (C-terminus); printed as D-S-K-K-F-D-R-G-H-L-Y-S-D) [Peptide 0708-30] | 63 | 80 | 90% |  |  | 
17 | D-S-K-K-K-H-R-E-W-V-W-S-D (DSKKKHREWVWSD; not fully specified (C-terminus); printed as D-S-K-K-K-H-R-E-W-V-W-S-D) [Peptide 0608-32] |  | 72 | 100% |  |  | 
18 | D-S-K-K-Y-D-R-D-F-L-W-S-D (DSKKYDRDFLWSD; not fully specified (C-terminus); printed as D-S-K-K-Y-D-R-D-F-L-W-S-D) [Peptide 0708-29] | 61 | 76 | 92% |  |  | 
19 | D-S-H-K-F-D-R-D-F-I-Y-S-D (DSHKFDRDFIYSD; not fully specified (C-terminus); printed as D-S-H-K-F-D-R-D-F-I-Y-S-D) [Peptide 0608-43] |  | 79 | 90 ** % |  |  | 100
20 | F-F-D-S-K-K-F-S-R-D-H-I-E-S-D (FFDSKKFSRDHIESD) [Peptide 0612-35] |  | 63 | 90% | 97 |  | 
21 | F-F-D-S-K-H-K-S-R-D-F-V-Y-S-D (FFDSKHKSRDFVYSD) [Peptide 0612-29] |  | 77 | 92% | 100 |  | 
22 | F-F-D-S-H-K-F-D-R-D-F-I-Y-S-D (FFDSHKFDRDFIYSD) [Peptide 0612-45] |  | 94 | 97 ** % | 100 |  | 
23 | F-F-D-S-H-K-L-H-R-E-W-M-W-S-D (FFDSHKLHREWMWSD) [Peptide 0612-46] |  | 91 | 92 ** % | 100 |  | 
24 | F-F-D-S-H-K-W-H-R-D-F-F-Y-S-D (FFDSHKWHRDFFYSD) [Peptide 0612-37] |  | 88 | 96 ** % | 100 |  | 
25 | D-S-K-F-A-F-R-G-G-I-A-S-D (DSKFAFRGGIASD; not fully specified (C-terminus); printed as D-S-K-F-A-F-R-G-G-I-A-S-D) [Peptide 0735-41] |  | 25 | 90% |  | 90 | 
26 | F-F-D-S-K-H-F-D-R-E-W-I-W-S-D (FFDSKHFDREWIWSD) [Peptide 0612-30] |  | 89 | 94 ** % | 100 |  | 
27 | D-S-H-K-W-H-R-D-F-F-Y-S-D (DSHKWHRDFFYSD; not fully specified (C-terminus); printed as D-S-H-K-W-H-R-D-F-F-Y-S-D) [Peptide 0608-35] |  | 73 | 92% |  |  | 
28 | F-F-D-S-K-K-W-S-R-E-Y-F-F-S-D (FFDSKKWSREYFFSD) [Peptide 0612-32] |  | 76 | 94% | 100 |  | 
29 | D-S-K-H-L-S-R-E-W-M-W-S-D (DSKHLSREWMWSD; not fully specified (C-terminus); printed as D-S-K-H-L-S-R-E-W-M-W-S-D) [Peptide 0608-24] |  | 54 | 95% |  |  | 90
